Several values for one entry are separate records, joined by “and”; a condition that tells them apart may be missing. Equal values may be shown once.
Experiments:
[1] = target: TGase-polymerized intact casein (CN-TG); experiment: casein-specific ELISA kit
[2] = target: TG polymers of chymotryptic WPI hydrolysate (chymotryptic-WPIH-TG); experiment: β-lactoglobulin-specific competitive ELISA kit
[3] = target: TG polymers of thermolysin WPI hydrolysate (thermolysin-WPIH-TG); experiment: β-lactoglobulin-specific competitive ELISA kit
[4] = target: TGase-polymerized native WPI (WPI-TG); experiment: β-lactoglobulin-specific competitive ELISA kit
[5] = target: chymotryptic hydrolysate of WPI (chymotryptic-WPIH); experiment: β-lactoglobulin-specific competitive ELISA kit
[6] = target: repolymerized tryptic WPI hydrolysate (tryptic-WPIH-TG); experiment: β-lactoglobulin-specific competitive ELISA kit
[7] = target: thermolysin hydrolysate of WPI (thermolysin-WPIH); experiment: β-lactoglobulin-specific competitive ELISA kit
[8] = target: tryptic hydrolysate of WPI (tryptic-WPIH); experiment: β-lactoglobulin-specific competitive ELISA kit
[9] = target: native WPI digests (peptides released during simulated gastric and duodenal digestion of native WPI); experiment: β-lactoglobulin-specific competitive ELISA kit, time course of in vitro digestion
[10] = target: thermolysin-WPIH-TG polymer digest (peptides released during simulated gastric and duodenal digestion); experiment: as above

Substance	immunoreactivity (% of casein control) (% of casein control) [1]	immunoreactivity (% of native WPI control) (% of native WPI control) [2]	immunoreactivity (% of native WPI control) (% of native WPI control) [3]	immunoreactivity (% of native WPI control) (% of native WPI control) [4]	immunoreactivity (% of native WPI control) (% of native WPI control) [5]	immunoreactivity (% of native WPI control) (% of native WPI control) [6]	immunoreactivity (% of native WPI control) (% of native WPI control) [7]	immunoreactivity (% of native WPI control) (% of native WPI control) [8]	immunoreactivity (%) [9] [%]	immunoreactivity (%) [10]
antibody of the AgraQuant F.A.S.T Casein ELISA test kit (Romer Labs Inc.)	70									
antibody of the … β-lactoglobulin test kit (β-lactoglobulin-specific competitive ELISA kit, R-Biopharm AG)		44	6	78	83	29 to 31	18	29	5 to 20	5% and < 5%

Reference: patent US20190352352A1
